Experimental data from PMC6065011.

How the values were obtained:
[1] = biological target: HMGB1, disulfide form (recombinant) (UniProt P09429); experiment: SPR
[2] = biological target: Siglec-10-Fc (soluble, recombinant) (UniProt Q96LC7); experiment: SPR
Chain of UniProt Q96LC7 (Q96LC7 17-550): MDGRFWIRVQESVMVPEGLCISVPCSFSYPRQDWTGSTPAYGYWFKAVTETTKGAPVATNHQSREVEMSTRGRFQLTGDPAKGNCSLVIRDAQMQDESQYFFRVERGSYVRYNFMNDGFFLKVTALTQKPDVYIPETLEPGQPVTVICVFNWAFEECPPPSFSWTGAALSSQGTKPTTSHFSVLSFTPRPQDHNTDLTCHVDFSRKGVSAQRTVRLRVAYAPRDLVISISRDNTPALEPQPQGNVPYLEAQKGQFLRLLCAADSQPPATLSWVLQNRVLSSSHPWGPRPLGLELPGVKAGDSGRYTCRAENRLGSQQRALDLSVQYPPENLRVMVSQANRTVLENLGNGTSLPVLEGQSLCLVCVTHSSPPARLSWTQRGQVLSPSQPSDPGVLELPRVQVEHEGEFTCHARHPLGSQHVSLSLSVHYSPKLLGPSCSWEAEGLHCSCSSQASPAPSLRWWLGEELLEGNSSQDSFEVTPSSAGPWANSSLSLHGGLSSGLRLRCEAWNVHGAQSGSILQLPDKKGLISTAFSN

Chain of UniProt P09429 (P09429 whole entry): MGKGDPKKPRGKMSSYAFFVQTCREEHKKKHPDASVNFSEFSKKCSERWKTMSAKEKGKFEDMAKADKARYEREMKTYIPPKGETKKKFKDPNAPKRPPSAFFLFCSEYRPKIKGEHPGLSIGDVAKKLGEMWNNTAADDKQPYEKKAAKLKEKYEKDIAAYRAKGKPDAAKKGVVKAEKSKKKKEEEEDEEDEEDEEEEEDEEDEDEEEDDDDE

## CD52-Fc (soluble CD52, recombinant) (from UniProt P31358 25-36) (Fc fusion)
[1]
  Kd: 0.13 µM
[2]
  Kd: 0.565 µM
